Reference: the Human Domainome abundance scans (Beltran et al. 2025)

B1: SH3 and PX domain-containing protein 2B, residues 155 to 209; numbered along this chain, A1X283 (parent)
chain: EQYVVVANYQKQESSEISLSVGQVVDIIEKNESGWWFVSTAEEQGWVPATCLEGQ
B2: Intersectin-1, residues 1156 to 1213; numbered along this chain, Q15811 (parent)
chain: AVCQVIGMYDYTAQNDDELAFNKGQIINVLNKEDPDWWKGEVNGQVGLFPSNYVKLTT

Variants of: B1
Assay: abundance fitness (aPCA) (normalised: wild type 0, dead -1); higher = more abundant; growth selection in yeast, the domain comes from the species named
Settings: Homo sapiens

Abundance fitness, by site and new letter:
V47: A -0.106, C 0.001, D -1.1, E -0.776, F -0.229, G -0.493, H -0.967, I 0.11, K -0.929, L -0.319, M -0.453, N -1.05, P -0.922, R -0.72, S -0.567, T -0.552, W -1.11, Y -0.45
P48: A -0.626, C -0.614, D -0.252, E -0.522, F -0.998, G -1, H -0.455, I -0.956, K -0.334, L -0.455, M -0.76, N -0.492, Q -0.568, R -0.306, S -0.544, T -0.888, V -0.79, W -0.835, Y -1.03
A49: C 0.045, D -0.214, E -0.273, F -0.139, G -0.016, H 0.118, K -0.053, L -0.012, M 0.003, N 0.02, P -0.105, Q -0.327, R -0.146, T -0.191, V -0.207, W -0.586, Y -0.237
T50: A -0.052, C -0.144, D -0.093, E -0.096, F -0.337, G 0.001, H -0.299, K 0.09, L -0.125, M -0.243, N -0.159, P -0.134, Q -0.161, R -0.023, S -0.046, W 0.049, Y -0.095
C51: A -0.12, D -0.737, E -0.944, F -0.212, G -0.711, H -0.322, K -0.245, L -0.267, M -0.787, P -0.959, Q -0.349, R -0.343, S -0.219, T -0.222, V -0.107, W -0.596, Y -0.271
L52: C -0.227, D -0.942, E -1.1, F -0.083, H -0.773, K -0.647, M -0.168, N -1.05, P -0.826, Q -1.05, R -0.835, T -1.22, V -0.049, W -0.775, Y -1.07
E53: A -0.014, C -0.14, D -0.073, F -0.33, G -0.008, H -0.138, I -0.289, K -0.004, L -0.2, M -0.144, Q 0.027, R -0.064, S -0.05, T -0.018, V -0.128, W -0.477, Y -0.252
G54: A 0, C -0.04, D -0.144, E 0.11, F -0.143, H -0.345, I 0.079, K -0.231, L 0.07, M -0.098, N 0.025, P -0.112, Q 0.121, R -0.019, T -0.069, V 0.008, Y -0.042
Q55: D -0.034, E -0.341, G -0.229, H -0.004, I -0.099, L -0.138, M -0.233, N -0.551, P 0.045, R 0.054, S -0.133, T -0.07, V -0.44, W -0.329, Y -0.267

Variants of: B2
Assay: as above
Settings: Homo sapiens

Abundance fitness, by site and new letter:
A1: D -0.322, E -0.082, R -0.1, S 0.127, T -0.213, V -0.068
V2: A -0.492, C -0.357, D -0.142, E -0.074, F -0.268, G -0.115, H -0.105, K -0.06, L -0.375
